Positions of bridges follow the written chain, without caps; N, C: chain ends. Residues, ends and D or L forms follow the SMILES beside them. Groups on a side chain read outwards from the residue. Chains are numbered I, II in the order given. *: point of attachment. Daunorubicin(13-NOCH2CO) = COc1cccc2c1C(=O)c1c(O)c3c(c(O)c1C2=O)C[C@@](O)(C(C)=NOCC(=O)*)C[C@@H]3O[C@H]1C[C@H](N)[C@H](O)[C@H](C)O1
Legend:
[1] = non-conjugated cyclic peptides; cited from earlier work
Description: Cyclic NGR peptides are promising candidates as targeting moieties for drug delivery to CD13-positive tumor cells and the tumor neovasculature. Up to now the most widely used NGR peptide conjugates have been based on the disulfide bridge containing cyclic peptide [CNGRC]. The cargo (including tumor necrosis factor (TNF), platina complexes, etc.) is usually attached to the C-terminus of the peptide. Recently, an amide bond containing cyclic NGR peptide ([KNGRE]-NH2) with higher resilience against deamidation has been described, in which cargos such as fluorescent labels or chelated ...

Lysosomal degradation = format: in vitro ADME; conditions: rat liver lysosomal homogenate, 37°C, LC-MS; for starting conjugate found after 6 h incubation in lysosomal homogenate: 0.2 M NaOAc pH 5.0, 1:1 w/w; for rate of decomposition in lysosomal homogenate / time within which the conjugate decomposed in lysosomal homogenate: 0.2 M NaOAc pH 5.0, conjugate/homogenate 1:1 w/w; for time within which the conjugate decomposed in lysosomal homogenate: conjugate 0.2 μg/μL, samples at 5 min, 72 h; for starting conjugate found after 6 h incubation in lysosomal homogenate / time within which the conjugate decomposed in lysosomal homogenate: 6 h
Protocol: Rat liver lysosomal homogenate was prepared as described previously. Protein concentration was determined with bicinchoninic acid (Pierce BCA protein assay) according to the manufacturer’s protocol (ThermoFisher Scientific, Rockford, IL, USA) and it was 17.4 μg/μL. Degradation of the bioconjugates in the rat liver lysosomal homogenate was determined as follows: i) bioconjugates were dissolved in d.i. water at a concentration of 4 μg/μL, ii) the solutes were further diluted to a concentration of 0.2 μg/μL with 0.2 M NaOAc (pH 5.0), iii) the rat liver lysosomal homogenate was diluted with 0.2 M NaOAc (pH 5.0) to a concentration of 3.48 μg/μL, iv) the homogenate was added to the conjugates (conjugate/lysosomal homogenate ratio = 1:1, w/w), v) the reaction mixtures were incubated at 37°C and aliquots of 13 μL were taken at 5 min, 6 h and 72 h, vi) the reactions were quenched by adding 2 μL of formic acid, followed by LC-MS analysis (Bruker Esquire 3000+; Jasco PU-2085plus system; Supelco Ascentis C18 coloum, 3 μm, 2,1 x 150 mm, 100 Å).
Conjugates for drug targeting with receptor-binding peptides may enter the cells by receptor mediated endocytosis. Endocytic vesicles fuse with lysosomes, which is followed by the degradation of the conjugates by lysosomal enzymes. Cathepsin B is one of the main lysosomal enzymes overexpressed in cancer cells. Therefore, Cathepsin B labile spacers (e.g. GFLG tetrapeptide) are often incorporated between the drug and targeting moiety. We used a rat lysosomal homogenate to study the degradation of conjugates and to follow the release of drug containing metabolites (Fig 9, S9–S14 Figs). […] In addition, a minor peak corresponding to Dau = Aoa-Gly-Phe-OH could also be detected. The peak corresponding to Dau = Aoa-GF-OH was the highest in case of conjugate 1. In contrast to these conjugates, decomposition of the disulfide bond containing conjugate (2) was much slower. […] This slow degradation might be one of the reasons why conjugate 2 is less toxic than conjugate 5, which has the same ring size. […] After 72 h only Dau = Aoa-Gly-OH could be detected in cases of all conjugates.

HT-1080 cells = experiment: Cellular uptake by flow cytometry; format: cell-based, human; conditions: 10 μM conjugate in FBS supplemented medium, 6 h, 37°C, flow cytometry of Dau fluorescence, live cells (Zombie Violet)
Protocol: (§1) HT-1080 and HT-29 cells were seeded at a 250,000 cells/well density, and were incubated overnight in their culturing media. The following day daunomycin conjugates were dissolved in culturing media (FBS supplemented), and added to the cells immediately at 10 μM final concentration. After 6 h incubation at 37°C the supernatant was removed, cells were washed with PBS and trypsinized with 0.1% trypsin (Gibco® by Life Technologies) for 10 minutes. Trypsinization was terminated with FBS containing medium, then cells were washed and suspended in serum free medium. For live/dead distinction we used Zombie Violet reagent (BioLegend, San Diego, CA). Samples were measured and analyzed with an Attune® Acoustic Focusing Cytometer (ThermoFisher Scientific).
(§2) As daunomycin-conjugates are fluorescent, we were able to follow their cellular uptake with a flow cytometer (Fig 10, S15 Fig). […] The higher uptake of 2 compared to 5 might partly compensate its slower degradation resulting in almost similar bioactivity. […] We speculate that the high cytostatic effect of 3 is explained by its fast decomposition resulting in the active Dau = Aoa-Gly-OH metabolite. […] However, after deamidation the formed isoDGR might be recognized by RGD integrin receptor, that results in moderate cytotoxicity in both cell lines during a longer treatment. […] Taking also the slow metabolite release into account, this observation explains the lack of significant cytostatic effect.
(§3) Fig 10 Direct uptake of daunomycin-conjugates. Normalized uptake values indicate the fold increase of the measured fluorescent units compared to the autofluorescence of empty cells.

HT-29 cells = experiment: Cellular uptake by flow cytometry; format: cell-based, human; conditions: 10 μM conjugate in FBS supplemented medium, 6 h, 37°C, flow cytometry of Dau fluorescence, live cells (Zombie Violet)
Protocol: as §1, §2, §3

| Molecule | chemostability class of the free cyclic NGR peptide (deamidation) [1] | starting conjugate found after 6 h incubation in lysosomal homogenate (Lysosomal degradation) | rate of decomposition in lysosomal homogenate (Lysosomal degradation) | cellular uptake in HT-1080 cells (HT-1080 cells) | cellular uptake in HT-29 cells (HT-29 cells) | time within which the conjugate decomposed in lysosomal homogenate (Lysosomal degradation) [h] |
| --- | --- | --- | --- | --- | --- | --- |
| Ac-CNGRC-NH2 (disulfide 1-5) [Ac-[CNGRC]-NH2, disulfide bridge containing cyclic NGR peptide] | moderately |  |  |  |  |  |
| COc1cccc2c1C(=O)c1c(O)c3c(c(O)c1C2=O)C[C@@](O)(C(C)=NOCC(=O)NCC(=O)N[C@@H](Cc1ccccc1)C(=O)N[C@@H](CC(C)C)C(=O)NCC(=O)NCCCC[C@@H]1NC(=O)CSC[C@@H](C(N)=O)NC(=O)[C@H](CCCNC(=N)N)NC(=O)CNC(=O)[C@H](CC(N)=O)NC1=O)C[C@@H]3O[C@H]1C[C@H](N)[C@H](O)[C@H](C)O1 [compound 4, [CH2CO-K(Dau = Aoa-GFLG)NGRC]-NH2] ({CH2CO}-K([Gly-Leu-Phe-Gly-Daunorubicin(13-NOCH2CO)])NGRC-NH2; thioether N-5) |  | the main components were still the intact conjugates | decomposed very slowly | low cellular uptake | low cellular uptake |  |
| c[CH2-CO-KNGRC]-NH2 (sidechain bridge or staple) [thioether bond containing cyclic NGR peptide] | highly labile |  |  |  |  |  |
| COc1cccc2c1C(=O)c1c(O)c3c(c(O)c1C2=O)C[C@@](O)(C(C)=NOCC(=O)NCC(=O)N[C@@H](Cc1ccccc1)C(=O)N[C@@H](CC(C)C)C(=O)NCC(=O)N[C@@H](CCCCNC(=O)CNC(=O)CNC(=O)[C@@H]1CSCC(=O)N[C@@H](CC(N)=O)C(=O)NCC(=O)N[C@@H](CCCNC(=N)N)C(=O)N1)C(N)=O)C[C@@H]3O[C@H]1C[C@H](N)[C@H](O)[C@H](C)O1 [compound 1, Dau = GFLGK([CH2CO-NGRC]GG)-NH2] (I: {CH2CO}-NGRCGG / II: {Daunorubicin(13-NOCH2CO)}-GFLGK-NH2; amide I:C-II:5; thioether I:N-I:4) |  |  |  | did not show significant cellular uptake | did not show significant cellular uptake | ≤ 6 |
| COc1cccc2c1C(=O)c1c(O)c3c(c(O)c1C2=O)C[C@@](O)(C(C)=NOCC(=O)NCC(=O)N[C@@H](Cc1ccccc1)C(=O)N[C@@H](CC(C)C)C(=O)NCC(=O)N[C@@H](CCCCNC(=O)CNC(=O)CNC(=O)[C@@H]1CSSC[C@H](NC(C)=O)C(=O)N[C@@H](CC(N)=O)C(=O)NCC(=O)N[C@@H](CCCNC(=N)N)C(=O)N1)C(N)=O)C[C@@H]3O[C@H]1C[C@H](N)[C@H](O)[C@H](C)O1 [compound 2, Dau = GFLGK(Ac-[CNGRC]GG)-NH2] (I: Ac-CNGRCGG / II: {Daunorubicin(13-NOCH2CO)}-GFLGK-NH2; disulfide I:1-I:5; amide I:C-II:5) |  | the presence of the starting compound could be detected | much slower | higher accumulation | higher accumulation |  |
| COc1cccc2c1C(=O)c1c(O)c3c(c(O)c1C2=O)C[C@@](O)(C(C)=NOCC(=O)NCC(=O)N[C@@H](Cc1ccccc1)C(=O)N[C@@H](CC(C)C)C(=O)NCC(=O)N[C@@H](CCCCNC(=O)CNC(=O)CNC(=O)[C@@H]1CSCC(=O)N[C@@H](CCCCN)C(=O)N[C@@H](CC(N)=O)C(=O)NCC(=O)N[C@@H](CCCNC(=N)N)C(=O)N1)C(N)=O)C[C@@H]3O[C@H]1C[C@H](N)[C@H](O)[C@H](C)O1 [compound 3, Dau = GFLGK([CH2CO-KNGRC]GG)-NH2] (I: {CH2CO}-KNGRCGG / II: {Daunorubicin(13-NOCH2CO)}-GFLGK-NH2; amide I:C-II:5; thioether I:N-I:5) |  |  |  | moderate uptake | moderate uptake | ≤ 6 |
| COc1cccc2c1C(=O)c1c(O)c3c(c(O)c1C2=O)C[C@@](O)(C(C)=NOCC(=O)NCC(=O)N[C@@H](Cc1ccccc1)C(=O)N[C@@H](CC(C)C)C(=O)NCC(=O)NCCCC[C@@H]1NC(=O)CC[C@@H](C(N)=O)NC(=O)[C@H](CCCNC(=N)N)NC(=O)CNC(=O)[C@H](CC(N)=O)NC1=O)C[C@@H]3O[C@H]1C[C@H](N)[C@H](O)[C@H](C)O1 [compound 6, [K(Dau = Aoa-GFLG)NGRE]-NH2] (K([Gly-Leu-Phe-Gly-Daunorubicin(13-NOCH2CO)])NGRE-NH2; lactam N-5) |  | the main components were still the intact conjugates | decomposed very slowly | low cellular uptake | low cellular uptake |  |
| c[KNGRE]-NH2 (lariat or depsi) [head-to-side chain amide bond cyclized NGR peptide] | stable |  |  |  |  |  |
| c[CH2-CO-NGRC]-NH2 | highly labile |  |  |  |  |  |

Source: paper PMC5456102, “NGR-peptide−drug conjugates with dual targeting properties” (PLoS ONE, 2017)
